According to paper PMC8338941, “Puf6 primes 60S pre-ribosome nuclear export at low temperature”:

B1: KL-TLGAAA (H68-H88-H22 RNA), Cy5 (structured_RNA)
RNA: UGAAGAAAUUCAAAAAAAAAGCUCGGAAUUUGAGCAAAAAAAAAAAACGGUGGUAAAUUCCAUCG

Legend:
Puf6-PUM [1] = target: T1, Puf6-PUM (Saccharomyces cerevisiae, UniProt Q04373 161-656); experiment: fluorescence anisotropy; buffer promoting tertiary contact; Anisotropy: 2.5 nM Cy5-RNA, 0.16 nM-20 uM protein, 27 C (stated for H68), buffer composition not in the material; FRET: 20 mM HEPES pH 7.4, 100 mM K+ (116 mM KCl in the supplement), 0-100 mM Mg2+; details: protein: recombinant; (pET47-Puf6 (161-656)); label: Cy5 (sCy5; sCy3 in the FRET construct); three hairpins, H22-H88 kissing loop, GAAA tetraloop docking
Puf6-PUM [2] = target: T1, Puf6-PUM; experiment: fluorescence anisotropy; 27 C; buffer promoting tertiary contact; Anisotropy: 2.5 nM Cy5-RNA, 0.16 nM-20 uM protein, 27 C (stated for H68), buffer composition not in the material; FRET: 20 mM HEPES pH 7.4, 100 mM K+ (116 mM KCl in the supplement), 0-100 mM Mg2+; details: protein: recombinant; (pET47-Puf6 (161-656)); label: Cy5 (sCy5); hairpin with GAAA tetraloop

T1 sequence (Q04373 161-656): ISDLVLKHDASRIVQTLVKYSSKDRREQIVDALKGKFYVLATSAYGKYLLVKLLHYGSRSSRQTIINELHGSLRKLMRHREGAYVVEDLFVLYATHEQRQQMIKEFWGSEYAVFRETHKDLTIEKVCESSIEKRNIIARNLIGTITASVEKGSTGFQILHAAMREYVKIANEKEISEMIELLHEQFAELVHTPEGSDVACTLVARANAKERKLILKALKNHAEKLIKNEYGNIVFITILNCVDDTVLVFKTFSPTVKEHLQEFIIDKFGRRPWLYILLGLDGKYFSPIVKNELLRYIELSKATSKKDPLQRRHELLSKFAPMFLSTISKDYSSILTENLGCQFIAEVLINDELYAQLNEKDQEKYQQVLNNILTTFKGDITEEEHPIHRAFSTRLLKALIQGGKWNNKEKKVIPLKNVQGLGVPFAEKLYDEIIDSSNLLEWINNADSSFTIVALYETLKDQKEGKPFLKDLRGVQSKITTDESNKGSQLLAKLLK

| Binder | Kd (Puf6-PUM [1]) [µM] | Kd (Puf6-PUM [2]) [µM] |
| --- | --- | --- |
| B1 | ~0.125 | – |
| UGAAGAAAUUCA (structured_RNA) [H68 RNA] | – | ~10 |
